Here are results for three molecules from US20190383824A1 (OREGON HEALTH AND SCIENCE UNIVERSITY, published 2019).

To fix the notation:
B1: CoilY probe peptide (peptide)
peptide: MGSSNTVKELKNYIQELEERNAELKNLKEHLKFAKAELEFELAAHKFEGGGAAACLGKLAAALEHHHHHH
modifications: also: label (AF647, rhodamine or biotin) on Cys55 by maleimide, varies between preparations
notes: Recombinant from E. coli, with linker, reactive cysteine and His6 tag; All differently labelled CoilY probes are kept as one molecule; also called Coil5; Zip5

Assay [1] addresses T1, CoilZ-EGFP-TM.
T1 construct: CoilZ fused to the N-terminus of EGFP in pDisplay; also called CoilZ-GFP; CoilZ-EGFP-pDisplay
T1 chain: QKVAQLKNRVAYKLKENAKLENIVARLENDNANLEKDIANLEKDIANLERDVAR
As to the kind of experiment: flow cytometry, live U-2 OS cells, 500 nM probe. The procedure:
(§1) Cells were treated with 500 nM AF647-conjugated probe peptide before analysis, and we gated for EGFP-expressing cells.
For orientation: In flow cytometry, cells or beads pass a laser one at a time.

The target of assay [2] is T1, CoilZ-EGFP-TM. Nature of the assay: flow cytometry, live cells, 300 nM probe.
For assay [3], the target named is T2, CoilY-mCherry-TM.
T2 construct: CoilY fused to the N-terminus of a membrane-targeted mCherry construct; on cells or in HEK293FT lysates; also called CoilY-mCherry-pDisplay
T2 chain: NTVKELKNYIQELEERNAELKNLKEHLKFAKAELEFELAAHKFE
As to the kind of experiment: two-target imaging of cells, confocal microscopy.

Assay [4] deals with T3, CoilY-EGFP-TM.
T3 construct: also called CoilY-GFP
T3 chain: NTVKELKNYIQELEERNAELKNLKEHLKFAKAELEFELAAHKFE
Nature of the assay: flow cytometry, live U-2 OS cells. As for the experimental part:
as §1

The target of assay [5] is T4, untagged TfR1 (UniProt P02786 1-760, limits assumed).
T4 construct: whole, on cells; Expressed in CHO TRVb cells; control without a coil tag; also called transferrin receptor 1; TfR1-TRVb
T4 sequence (P02786 whole entry): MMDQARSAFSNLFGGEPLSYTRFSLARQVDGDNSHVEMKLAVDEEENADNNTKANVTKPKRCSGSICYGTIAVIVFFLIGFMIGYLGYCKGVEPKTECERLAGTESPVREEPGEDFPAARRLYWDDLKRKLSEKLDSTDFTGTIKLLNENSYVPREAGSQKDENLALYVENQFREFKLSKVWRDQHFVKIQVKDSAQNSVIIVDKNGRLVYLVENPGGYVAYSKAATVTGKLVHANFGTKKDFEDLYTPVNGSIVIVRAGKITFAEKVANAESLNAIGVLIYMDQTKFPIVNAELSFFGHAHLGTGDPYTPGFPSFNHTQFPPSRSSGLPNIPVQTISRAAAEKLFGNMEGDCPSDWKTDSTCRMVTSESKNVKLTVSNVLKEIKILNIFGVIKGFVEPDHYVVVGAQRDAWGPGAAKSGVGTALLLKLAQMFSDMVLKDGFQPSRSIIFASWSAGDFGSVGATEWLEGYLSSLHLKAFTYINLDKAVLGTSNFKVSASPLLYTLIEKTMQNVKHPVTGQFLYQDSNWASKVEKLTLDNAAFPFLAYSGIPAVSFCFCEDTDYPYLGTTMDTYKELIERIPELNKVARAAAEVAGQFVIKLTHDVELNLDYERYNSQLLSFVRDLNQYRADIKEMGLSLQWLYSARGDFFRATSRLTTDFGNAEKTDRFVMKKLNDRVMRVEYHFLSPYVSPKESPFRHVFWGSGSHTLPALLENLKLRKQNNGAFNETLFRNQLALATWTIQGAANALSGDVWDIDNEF
As to the kind of experiment: CLEM of CHO TRVb cells, CoilR-biotin detected by streptavidin-QD655. The text has this:
VIP E/R was used for CLEM imaging of TfR1 receptor (FIG. 7). […] This enabled individual cells' locations to be registered relative to the slide so that they may be reimaged again via SEM. After fluorescent cells were mapped, the coverslips were processed for EM imaging.

For assay [6], the target named is T2, CoilY-mCherry-TM. Nature of the assay: fluorescent blot on PVDF after SDS-PAGE.
In assay [7] the target is T5, H2B-6-CoilE-mEmerald.
T5 construct: Expressed in U-2 OS cells; labelled after fixation and permeabilisation; also called mEmerald-CoilE-H2B; not shown: histone H2B (H2B-6 construct); mEmerald, engineered green fluorescent protein
T5 chain: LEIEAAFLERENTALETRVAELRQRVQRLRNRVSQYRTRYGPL
As to the kind of experiment: colocalisation analysis of micrographs, fixed U-2 OS cells. As for the experimental part:
(§2) U-2 OS cells were transfected with mEmerald-actin-C18, mEmerald-CoilE-actin-C18, H2B-6-mEmerald, H2B-6-CoilE-mEmerald, Mito-7-mEmerald, and Mito-7-CoilE-mEmerald and fixed with 4% PFA 24 hours after transfection. […] Cells were fixed and imaged using with line-scanning confocal microscope.
(§3) The cells labeled as in FIG. 15 at low magnification to capture multiple cells.

Assay [8] addresses T6, mEmerald-CoilE-Actin-C18.
T6 construct: Expressed in U-2 OS cells; labelled after fixation and permeabilisation; also called CoilE-tagged actin; not shown: mEmerald, engineered green fluorescent protein; actin (Actin-C18 construct)
T6 chain: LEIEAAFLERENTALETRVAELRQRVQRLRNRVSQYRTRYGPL
The description is as above. As for the experimental part:
as §2, §3

Assay [9] addresses T7, Mito-7-CoilE-mEmerald.
T7 construct: Expressed in U-2 OS cells; labelled after fixation and permeabilisation; also called mEmerald-CoilE-mito; not shown: mEmerald, engineered green fluorescent protein
T7 chain: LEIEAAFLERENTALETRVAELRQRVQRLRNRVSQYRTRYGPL
Described as above. The procedure:
as §2, §3

Assay [10] deals with T8, CoilE-DHFR.
T8 construct: Lysate and purified protein resolved by SDS-PAGE and blotted on PVDF
T8 chain: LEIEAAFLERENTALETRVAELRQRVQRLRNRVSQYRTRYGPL
Nature of the assay: fluorescent blot on PVDF after SDS-PAGE.

The target of assay [11] is T3, CoilY-EGFP-TM. As to the kind of experiment: flow cytometry, live U-2 OS cells, 500 nM probe. The procedure: as §1
Assay [12] has as its target B1. Nature of the assay: purified peptides; interferometry is named among the characterisation methods.
For assay [13], the target named is T1, CoilZ-EGFP-TM. As to the kind of experiment: two-target imaging of cells, confocal microscopy, streptavidin-Qdot565 detection.

On to B1, for which the “fold enhancement of AF647 fluorescence” value in assay [1] was greater than 40 fold. The “fold increase in AF647 fluorescence” value in assay [2] is 35 fold. Also, the binding result in assay [3] and in [4] was “no binding (tested: 500 nM)” in each case.

B2: CoilR probe peptide (peptide)
peptide: MGGSLEIRAAFLRQRNTALRTEVAELEQEVQRLENEVSQYETRYGPLGGGAAALGCLAAALEHHHHHH
modifications: not fully specified
notes: also called CoilR-Cy5; CoilR-biotin
Consider B2, for which the values for the binding result in assay [5] and in assay [6] were “no binding (tested: 100 nM)” and “no binding”, respectively. Further, the “Pearson's correlation between the mEmerald signal and CoilR-Cy5” value came out at 0.9 in [7], 0.97 in assay [8] and 0.89 in [9].

B3: CoilZ probe peptide (peptide)
peptide: MGSSQKVAQLKNRVAYKLKENAKLENIVARLENDNANLEKDIANLEKDIANLERDVARGGGAAACLGKLAAALEHHHHHH
modifications: reporter named in each row (AF647, fluorescein or biotin) conjugated to the reactive cysteine by maleimide chemistry; label state not stated for the biophysical characterisation
notes: Recombinant from E. coli, with linker, reactive cysteine and His6 tag; All differently labelled CoilZ probes are kept as one molecule; also called Coil6; Zip6
A word on the Kd: it is the concentration at which binding is half-saturated. On to B3, for which the results for the binding result in assay [10] and in assay [13] were “no binding” and “no binding (tested: 500 nM)”, respectively. In addition, in [11], the “fold enhancement of AF647 fluorescence” value came to 4 fold. The same molecule gave a Kd in [12] of 3.6 nM.
